Where two headings read alike, the source gives them in different places.
Legend:
[1] = target: the molecule itself; experiment: SEC
[2] = target: the molecule itself; experiment: SEC; remark: listed apart in the source

Protein | stoichiometry N [1] | stoichiometry N [2]
^coreAFG3L2^E575Q (enzyme) not shown | 6 | 
^coreAFG3L2^E408Q (enzyme) not shown |  | 6

Reference: article PMC6475807 (Biochemistry, 2018)
